Results taken from patent EP4592317A1 (ABlink Biotech Co., Ltd., dated 2025).
Values joined by “and” are separate entries in the source; they are usually repeats but may differ in a detail not shown here. Equal values may be shown once.

T1: Mouse 4-1BB extracellular region recombinant protein (his-tag) (mouse, UniProt P20334 24-187)
T1 construct: extracellular domain; also called Mouse4-1BB, his-tag; not shown: his-tag
T1 sequence (looked up): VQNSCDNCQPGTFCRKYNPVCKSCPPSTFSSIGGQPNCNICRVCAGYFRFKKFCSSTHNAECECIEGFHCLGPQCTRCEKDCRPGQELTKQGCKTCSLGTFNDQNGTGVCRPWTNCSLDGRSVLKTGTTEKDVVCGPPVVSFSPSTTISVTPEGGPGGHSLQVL

B1: 137-18 VHH-hFc recombinant antibody (Fc fusion)
chain: QVQLVESGGGLVHPGGSLRLSCAASGFIFSLYTMSWVRQAPGKGLEWVSDINSGGDSTDYADSVKGRFTISRDNAKSTLYLQMNSLKPEDTAVYYCAKDYPLGQREDYWGQGTQVTVSS
notes: VHH fragment inserted into vector pFclG with human IgG1 Fc tag, expressed in HEK293F; also called CD137-18; not shown: human IgG1 Fc tag of the eukaryotic expression vector pFclG
B2: 137-1 VHH-hFc recombinant antibody (Fc fusion)
chain: QVQLVESGGGLVQPGGSLRLSCVASGFVFSTVTMGWGRQVPGKEFEWVSGVSSEGITDYADSVKGRFTISRDNAKNTVYLEMNSLKSEDTAEYYCLIGGRWSFGTWGQGTQVTVSS
notes: also called CD137-1; not shown: human IgG1 Fc tag of the eukaryotic expression vector pFclG

What was measured:
[1] = target: T1, Mouse 4-1BB extracellular region …; assay: ELISA, coated mouse 4-1BB his-tag 200 ng/well
[2] = target: T2, Human 4-1BB extracellular domain recombinant protein (his-tag) (human, UniProt Q07011 24-186); assay: ELISA, coated human 4-1BB-his 200 ng/well
T2 construct: extracellular domain; also called Human4-1BB, his-tag; human 4-1BB extracellular region recombinant protein; not shown: his-tag

[3] = target: T3, Monkey 4-1BB extracellular region recombinant protein (his-tag) (monkey); assay: ELISA, coated monkey 4-1BB-his 200 ng/well
T3 construct: extracellular domain; also called Monkey4-1BB, his-tag

[4] = target: T2, Human 4-1BB extracellular domain …; assay: ELISA, coated human 4-1BB-his 200 ng/well; antibody 0.12 µg/ml
[5] = target: T2, Human 4-1BB extracellular domain …; assay: ELISA, coated human 4-1BB-his 200 ng/well; antibody 0.37 µg/ml
[6] = target: T2, Human 4-1BB extracellular domain …; assay: ELISA, coated human 4-1BB-his 200 ng/well; antibody 1.11 µg/ml
[7] = target: T2, Human 4-1BB extracellular domain …; assay: ELISA, coated human 4-1BB-his 200 ng/well; antibody 10.0 µg/ml
[8] = target: T2, Human 4-1BB extracellular domain …; assay: ELISA, coated human 4-1BB-his 200 ng/well; antibody 3.33 µg/ml
[9] = target: T1, Mouse 4-1BB extracellular region …; assay: ELISA, coated mouse 4-1BB-his 200 ng/well; antibody 0.12 µg/ml
[10] = target: T1, Mouse 4-1BB extracellular region …; assay: ELISA, coated mouse 4-1BB-his 200 ng/well; antibody 0.37 µg/ml
[11] = target: T1, Mouse 4-1BB extracellular region …; assay: ELISA, coated mouse 4-1BB-his 200 ng/well; antibody 1.11 µg/ml
[12] = target: T1, Mouse 4-1BB extracellular region …; assay: ELISA, coated mouse 4-1BB-his 200 ng/well; antibody 10.0 µg/ml
[13] = target: T1, Mouse 4-1BB extracellular region …; assay: ELISA, coated mouse 4-1BB-his 200 ng/well; antibody 3.33 µg/ml
[14] = target: T2, Human 4-1BB extracellular domain …; assay: ELISA, coated human 4-1BB-his 200 ng/well; antibody 0.014 µg/ml
[15] = target: T2, Human 4-1BB extracellular domain …; assay: ELISA, coated human 4-1BB-his 200 ng/well; antibody 0.041 µg/ml
[16] = target: T3, Monkey 4-1BB extracellular region …; assay: ELISA, coated monkey 4-1BB-his 200 ng/well; antibody 0.12 µg/ml
[17] = target: T3, Monkey 4-1BB extracellular region …; assay: ELISA, coated monkey 4-1BB-his 200 ng/well; antibody 0.37 µg/ml
[18] = target: T3, Monkey 4-1BB extracellular region …; assay: ELISA, coated monkey 4-1BB-his 200 ng/well; antibody 1.11 µg/ml
[19] = target: T3, Monkey 4-1BB extracellular region …; assay: ELISA, coated monkey 4-1BB-his 200 ng/well; antibody 10.0 µg/ml
[20] = target: T3, Monkey 4-1BB extracellular region …; assay: ELISA, coated monkey 4-1BB-his 200 ng/well; antibody 3.33 µg/ml
[21] = target: T1, Mouse 4-1BB extracellular region …; assay: ELISA, coated mouse 4-1BB-his 200 ng/well; antibody 0.014 µg/ml
[22] = target: T1, Mouse 4-1BB extracellular region …; assay: ELISA, coated mouse 4-1BB-his 200 ng/well; antibody 0.041 µg/ml
[23] = target: T3, Monkey 4-1BB extracellular region …; assay: ELISA, coated monkey 4-1BB-his 200 ng/well; antibody 0.014 µg/ml
[24] = target: T3, Monkey 4-1BB extracellular region …; assay: ELISA, coated monkey 4-1BB-his 200 ng/well; antibody 0.041 µg/ml
[25] = target: T2, Human 4-1BB extracellular domain …; assay: ELISA, coated human 4-1BB-his 200 ng/well; antibody 0 µg/ml (background well)
[26] = target: T1, Mouse 4-1BB extracellular region …; assay: ELISA, coated mouse 4-1BB-his 200 ng/well; antibody 0 µg/ml (background well)
[27] = target: T3, Monkey 4-1BB extracellular region …; assay: ELISA, coated monkey 4-1BB-his 200 ng/well; antibody 0 µg/ml (background well)
[28] = target: T2, Human 4-1BB extracellular domain …; assay: SPR (Biacore 8K), VHH-hFc captured on Protein A chip, human 4-1BB-his as analyte, 25°C, 1:1 fit

Binder | binding result [1] | EC50 [2] | EC50 [3] | absorbance at 450 nm [4] | absorbance at 450 nm [5] | absorbance at 450 nm [9] | absorbance at 450 nm [10] | absorbance at 450 nm [11] | absorbance at 450 nm [12] | absorbance at 450 nm [13] | absorbance at 450 nm [14] | absorbance at 450 nm [15] | absorbance at 450 nm [16] | absorbance at 450 nm [17] | absorbance at 450 nm [21] | absorbance at 450 nm [22] | absorbance at 450 nm [23] | absorbance at 450 nm [24] | absorbance at 450 nm [25] | absorbance at 450 nm [26] | further results
B1 | no binding (tested: 0.014-10 µg/mL) | 4.06 µg/mL and 50.8 nM | 4.36 µg/mL and 54.5 nM | 0.562 | 0.732 | 0.192 | 0.199 | 0.214 | 0.288 | 0.219 | 0.399 | 0.451 | 0.433 | 0.707 | 0.188 | 0.182 | 0.325 | 0.392 | 0.119 | 0.203 | absorbance at 450 nm [6]: 1.31; absorbance at 450 nm [7]: 2.93; absorbance at 450 nm [8]: 1.73; absorbance at 450 nm [18]: 1.19; absorbance at 450 nm [19]: 3.3; absorbance at 450 nm [20]: 2.05; absorbance at 450 nm [27]: 0.051; Kd [28]: 3.36 nM; koff [28]: 0.000792 s⁻¹; kon [28]: 236000 M⁻¹ s⁻¹
B2 | no binding (tested: 0.014-10 µg/mL) | 0.138 µg/mL and 1.73 nM | 0.113 µg/mL and 1.41 nM | 1.5 | 3.97 | 0.184 | 0.269 | 0.207 | 0.31 | 0.231 | 0.612 | 0.754 | 1.85 | 3.97 | 0.199 | 0.202 | 0.621 | 0.971 | 0.093 | 0.24 | absorbance at 450 nm [27]: 0.077; Kd [28]: 3.91 nM; koff [28]: 0.00916 s⁻¹; kon [28]: 2.34e+06 M⁻¹ s⁻¹
